According to paper PMC10371074, “Allosteric control of dynamin-related protein 1-catalyzed mitochondrial fission through a conserved disordered C-terminal Short Linear Motif” (Research Square, 2023):
Values joined by “and” are separate entries in the source; they are usually repeats but may differ in a detail not shown here. Equal values may be shown once.

B1: human Drp1 (isoform 3) ΔCT4, last four residues of the CT-SLiM removed (enzyme, UniProt O00429-4 1-695, looked up)
chain: MEALIPVINKLQDVFNTVGADIIQLPQIVVVGTQSSGKSSVLESLVGRDLLPRGTGIVTRRPLILQLVHVSQEDKRKTTGEENGVEAEEWGKFLHTKNKLYTDFDEIRQEIENETERISGNNKGVSPEPIHLKIFSPNVVNLTLVDLPGMTKVPVGDQPKDIELQIRELILRFISNPNSIILAVTAANTDMATSEALKISREVDPDGRRTLAVITKLDLMDAGTDAMDVLMGRVIPVKLGIIGVVNRSQLDINNKKSVTDSIRDEYAFLQKKYPSLANRNGTKYLARTLNRLLMHHIRDCLPELKTRINVLAAQYQSLLNSYGEPVDDKSATLLQLITKFATEYCNTIEGTAKYIETSELCGGARICYIFHETFGRTLESVDPLGGLNTIDILTAIRNATGPRPALFVPEVSFELLVKRQIKRLEEPSLRCVELVHEEMQRIIQHCSNYSTQELLRFPKLHDAIVEVVTCLLRKRLPVTNEMVHNLVAIELAYINTKHPDFADACGLMNNNIEEQRRNRLARELPSAVSRDKVASGGGGVGDGVQEPTTGNWRGMLKTSKAEELLAEEKSKPIPIMPASPQKGHAVNLLDVPVPVARKLSAREQRDCEVIERLIKSYFLIVRKNIQDSVPKAVMHFLVNHVKDTLQSELVGQLYKSSLLDDLLTESEDMAQRRKEAADMLKALQGASQIIAEIRE
notes: Dynamin-related protein 1 (Drp1), human, isoform 3 (699 aa residues), with the last four residues removed; also called ΔCT4 Drp1; ΔCT4/6
B2: human Drp1 (isoform 3) ΔCT6, last six residues (whole CT-SLiM) removed (enzyme, UniProt O00429-4 1-693, looked up)
chain: MEALIPVINKLQDVFNTVGADIIQLPQIVVVGTQSSGKSSVLESLVGRDLLPRGTGIVTRRPLILQLVHVSQEDKRKTTGEENGVEAEEWGKFLHTKNKLYTDFDEIRQEIENETERISGNNKGVSPEPIHLKIFSPNVVNLTLVDLPGMTKVPVGDQPKDIELQIRELILRFISNPNSIILAVTAANTDMATSEALKISREVDPDGRRTLAVITKLDLMDAGTDAMDVLMGRVIPVKLGIIGVVNRSQLDINNKKSVTDSIRDEYAFLQKKYPSLANRNGTKYLARTLNRLLMHHIRDCLPELKTRINVLAAQYQSLLNSYGEPVDDKSATLLQLITKFATEYCNTIEGTAKYIETSELCGGARICYIFHETFGRTLESVDPLGGLNTIDILTAIRNATGPRPALFVPEVSFELLVKRQIKRLEEPSLRCVELVHEEMQRIIQHCSNYSTQELLRFPKLHDAIVEVVTCLLRKRLPVTNEMVHNLVAIELAYINTKHPDFADACGLMNNNIEEQRRNRLARELPSAVSRDKVASGGGGVGDGVQEPTTGNWRGMLKTSKAEELLAEEKSKPIPIMPASPQKGHAVNLLDVPVPVARKLSAREQRDCEVIERLIKSYFLIVRKNIQDSVPKAVMHFLVNHVKDTLQSELVGQLYKSSLLDDLLTESEDMAQRRKEAADMLKALQGASQIIAEI
notes: Dynamin-related protein 1 (Drp1), human, isoform 3 (699 aa residues), with the last six residues R694-W699 removed; also called ΔCT6 Drp1; DCT6 Drp1
B3: human dynamin-related protein 1 (Drp1) isoform 3, wild type, N-terminally His6-tagged (enzyme, UniProt O00429-4 1-699, looked up)
chain: MEALIPVINKLQDVFNTVGADIIQLPQIVVVGTQSSGKSSVLESLVGRDLLPRGTGIVTRRPLILQLVHVSQEDKRKTTGEENGVEAEEWGKFLHTKNKLYTDFDEIRQEIENETERISGNNKGVSPEPIHLKIFSPNVVNLTLVDLPGMTKVPVGDQPKDIELQIRELILRFISNPNSIILAVTAANTDMATSEALKISREVDPDGRRTLAVITKLDLMDAGTDAMDVLMGRVIPVKLGIIGVVNRSQLDINNKKSVTDSIRDEYAFLQKKYPSLANRNGTKYLARTLNRLLMHHIRDCLPELKTRINVLAAQYQSLLNSYGEPVDDKSATLLQLITKFATEYCNTIEGTAKYIETSELCGGARICYIFHETFGRTLESVDPLGGLNTIDILTAIRNATGPRPALFVPEVSFELLVKRQIKRLEEPSLRCVELVHEEMQRIIQHCSNYSTQELLRFPKLHDAIVEVVTCLLRKRLPVTNEMVHNLVAIELAYINTKHPDFADACGLMNNNIEEQRRNRLARELPSAVSRDKVASGGGGVGDGVQEPTTGNWRGMLKTSKAEELLAEEKSKPIPIMPASPQKGHAVNLLDVPVPVARKLSAREQRDCEVIERLIKSYFLIVRKNIQDSVPKAVMHFLVNHVKDTLQSELVGQLYKSSLLDDLLTESEDMAQRRKEAADMLKALQGASQIIAEIRETHLW
notes: Dynamin-related protein 1 (Drp1), human, isoform 3, 699 aa residues; the last six residues R694-W699 (RETHLW) are the CT-SLiM; also called WT Drp1; WT; not shown: His6 (36 aa-residue N-terminal tag), N-terminal, kept
B4: mouse GIPC-1 (GAIP interacting protein, C-terminus 1), full length (natural protein, UniProt Q9Z0G0 1-333, looked up)
chain: MPLGLGRRKKAPPLVENEEAEPSRSGLGVGEPGPLGGSAAGESQMGLPPPPAALRPRLVFHTQLAHGSPTGRIEGFTNVKELYGKIAEAFRLPAAEVMFCTLNTHKVDMDKLLGGQIGLEDFIFAHVKGQRKEVEVFKSEEALGLTITDNGAGYAFIKRIKEGSVIDHIQLISVGDMIEAINGQSLLGCRHYEVARLLKELPRGRTFTLKLTEPRKAFDMISQRSAGGHPGSGPQLGTGRGTLRLRSRGPATVEDLPSAFEEKAIEKVDDLLESYMGIRDTELAATMVELGKDKRNPDELAEALDERLGDFAFPDEFVFDVWGAIGDAKVGRY
notes: N-terminal IDR, GH1, PDZ and GH2 domains; GST removed after purification by HRV3C proteolysis; also called full-length GIPC-1; source: subcloned in pGEX-6P1, expressed and purified using standard protocols; aggregates removed by centrifugation and/or gel filtration; not shown: GST, N-terminal, cleaved

What was measured:
[1] = target: the molecule itself; experiment: SEC-MALS; nucleotide-free apo state in solution; Superose 6 10/300 GL column; 5 uM protein at injection (Fig. 1E), other injection concentrations in Fig. S2C
[2] = target: the molecule itself; experiment: negative-stain EM; 2-D class averages of single particles; Drp1 at 2 uM, apo state and with 1 mM GTP
[3] = target: the molecule itself; experiment: SEC-MALS; full-length GIPC-1, unliganded, 10 uM at injection; Superdex 200 10/300 GL column; dimer to monomers
[4] = target: B3; experiment: negative-stain EM; Drp1 (1.5 uM) pre-incubated with GIPC-1 (6 uM) for 15 min at room temperature, then CL-containing liposomes (50 uM total lipid) for 15 min; equimolar and 1:4 ratios; settings: both partners purified
[5] = target: B2; experiment: negative-stain EM; 2-D class averages; apo Drp1 (2 uM) with GIPC-1 (8 uM), 1:4 molar ratio; settings: both partners purified

binding result [4] | binding result [5] | Binder | stoichiometry N [1] | stoichiometry N [2] | stoichiometry N [3]
 |  | B1 | 2 and 4 |  | 
 |  | B2 | 2 and 4 |  | 
 |  | B3 | 4 | 2 | 
binds | binds | B4 |  |  | 2
